Here are results for eight molecules from patent publication US20170015742A1 (published 2017).

Holding throughout (assay): cell-based or functional assay
The target in test [1] is recombinant human VEGF165 (human, UniProt P15692 207-395).
The target in test [2] is recombinant human PDGF-BB (human, UniProt P01127 82-190).
Target sequence in this assay (P01127 82-190 limits assumed): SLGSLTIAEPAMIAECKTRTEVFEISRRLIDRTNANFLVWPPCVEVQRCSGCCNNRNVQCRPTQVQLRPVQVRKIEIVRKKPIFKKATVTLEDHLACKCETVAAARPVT
Test [3] shares this target. The source holds these as a separate data set.
Target sequence in this assay (P01127 82-190 limits assumed): as above

Chain of recombinant human VEGF165 (P15692 other isoform, or with tags, fused parts or gaps limits assumed): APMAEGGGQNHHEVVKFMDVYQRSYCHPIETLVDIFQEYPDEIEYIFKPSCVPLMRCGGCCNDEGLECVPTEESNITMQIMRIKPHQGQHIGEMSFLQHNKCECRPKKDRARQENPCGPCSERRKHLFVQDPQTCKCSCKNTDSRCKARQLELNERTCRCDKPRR

B1: CL-33675_GS_1B10.1 (bispecific antibody, human IgG1, kappa, L234A L235A)
heavy: EVTLRESGPALVKPTQTLTLTCTFSGFSLSTYGMGVGWIRQPPGKALEWLANIWWDDDKYYNPSLKNRLTISKDTSKNQVVLTMTNMDPVDTATYYCARIESSGPKYSFDYWGQGTMVTVSSGGGGSGGGGSEVQLVESGGGLVQPGGSLRLSCAASGFSFSKYDMAWFRQAPGKGLEWVASITTSGVGTYYRDSVKGRFTVSRDNAKSTLYLQMNSLRAEDTAVYYCARGYGAMDAWGQGTTVTVSSASTKGPSVFPLAPSSKSTSGGTAALGCLVKDYFPEPVTVSWNSGALTSGVHTFPAVLQSSGLYSLSSVVTVPSSSLGTQTYICNVNHKPSNTKVDKKVEPKSCDKTHTCPPCPAPEAAGGPSVFLFPPKPKDTLMISRTPEVTCVVVDVSHEDPEVKFNWYVDGVEVHNAKTKPREEQYNSTYRVVSVLTVLHQDWLNGKEYKCKVSNKALPAPIEKTISKAKGQPREPQVYTLPPSREEMTKNQVSLTCLVKGFYPSDIAVEWESNGQPENNYKTTPPVLDSDGSFFLYSKLTVDKSRWQQGNVFSCSVMHEALHNAYTQKSLSLSPGK
light: EIVLTQSPGTLSLSPGERATLSCRASSGSIWYSFVSWYQQKPGQAPRLLIYADDQRASGIPDRFSGSGSGTDFTLTISRLEPEDFAVYYCQSYGINIDVVFGGGTKVEIKGGSGGGGSGGDIQMTQSPSSLSASVGDRVTITCKASQDIDDYLSWYQQKPGKSPKLVIYAATRLADGVPSRFSGSGSGTDYTLTISSLQPEDFATYYCLQSSSTPWTFGGGTKVEIKRTVAAPSVFIFPPSDEQLKSGTASVVCLLNNFYPREAKVQWKVDNALQSGNSQESVTEQDSKDSTYSLSSTLTLSKADYEKHKVYACEVTHQGLSSPVTKSFNRGEC
As for B1, in test [1], the “Potency IC50 (nM) HMVEC-d hVEGF165” value is 0.265 nM. For the same molecule, in test [2], the “Potency IC50 (nM) NIH-3T3 hPDGF-BB” value amounted to 0.11 nM.

B2: CL-33675_GS_4G8.5 (bispecific antibody, human IgG1, kappa, L234A L235A)
heavy: EVTLRESGPALVKPTQTLTLTCTFSGFSLSTYGMGVGWIRQPPGKALEWLANIWWDDDKYYNPSLKNRLTISKDTSKNQVVLTMTNMDPVDTATYYCARIESSGPKYSFDYWGQGTMVTVSSGGGGSGGGGSEIQLVQSGSELKKPGASVKVSCKASGYTFTNYGMYWVRQAPGQGLEYMGWINTETGKPTYADDFKGRFVFSLDTSVSTAYLQISSLKAEDTAVYFCARTNYYYRSYIFYFDYWGQGTMVTVSSASTKGPSVFPLAPSSKSTSGGTAALGCLVKDYFPEPVTVSWNSGALTSGVHTFPAVLQSSGLYSLSSVVTVPSSSLGTQTYICNVNHKPSNTKVDKKVEPKSCDKTHTCPPCPAPEAAGGPSVFLFPPKPKDTLMISRTPEVTCVVVDVSHEDPEVKFNWYVDGVEVHNAKTKPREEQYNSTYRVVSVLTVLHQDWLNGKEYKCKVSNKALPAPIEKTISKAKGQPREPQVYTLPPSREEMTKNQVSLTCLVKGFYPSDIAVEWESNGQPENNYKTTPPVLDSDGSFFLYSKLTVDKSRWQQGNVFSCSVMHEALHNAYTQKSLSLSPGK
light: EIVLTQSPGTLSLSPGERATLSCRASSGSIWYSFVSWYQQKPGQAPRLLIYADDQRASGIPDRFSGSGSGTDFTLTISRLEPEDFAVYYCQSYGINIDVVFGGGTKVEIKGGSGGGGSGGATQLTQSPSLSASVGDRVTITCRASESVSTHMHWYQQKPGKQPKLLIYGASNLESGVPSRFSGSGSGTDFTLTISSLQPEDFATYFCQQSWNDPFTFGQGTKLEIKRTVAAPSVFIFPPSDEQLKSGTASVVCLLNNFYPREAKVQWKVDNALQSGNSQESVTEQDSKDSTYSLSSTLTLSKADYEKHKVYACEVTHQGLSSPVTKSFNRGEC
As to B2, the “Potency IC50 (nM) HMVEC-d hVEGF165” value in test [1] stood at 0.219 nM. In test [2], the “Potency IC50 (nM) NIH-3T3 hPDGF-BB” value was 0.035 nM.

B3: hBDI-9E8.1 (antibody, V domains shown)
VH: EVTLRESGPALVKPTQTLTLTCTFSGFSLSTYGMGVGWIRQPPGKALEWLANIWWDDDKYYNPSLKNRLTISKDTSKNQVVLTMTNMDPVDTATYYCARIESIGTTYSFDYWGQGTMVTVSS
VL: NFMLTQPHSVSESPGKTVTISCERSSGDIGDSYVSWYQQRPGSSPTTVIYADDQRPSGVPDRFSGSIDSSSNSASLTISGLKTEDEADYYCQSYDINIDIVFGGGTKLTVL
For the molecule B3, the “hPDGF-BB IC50 (nM), hPDGF-BB-induced NIH-3T3 cell proliferation” value (shortened to “hPDGF-BB IC50 (nM)”) in test [3] is above 5 nM.

B4: hBDI-9E8.3 (antibody, V domains shown)
VH: EVTLRESGPALVKPTQTLTLTCTFSGFSLSTYGMGVGWIRQPPGKALEWLANIWWDDDKYYNPSLKNRLTISKDTSKNQVVLTMTNMDPVDTATYYCARIESIGTTYSFDYWGQGTMVTVSS
VL: EIVLTQSPGTLSLSPGERATLSCERSSGDIGDSYVSWYQQKPGQAPRLLIYADDQRPSGIPDRFSGSGSGTDFTLTISRLEPEDFAVYYCQSYDINIDIVFGGGTKVEIK
As for B4, the “hPDGF-BB IC50 (nM)” value in test [3] worked out at 1.58 nM.

B5: hBDI-9E8.2 (antibody, V domains shown)
VH: EVTLRESGPALVKPTQTLTLTCTFSGFSLSTYGMGVGWIRQPPGKALEWLANIWWDDDKYYNPSLKNRLTISKDTSKNQVVLTMTNMDPVDTATYYCARIESIGTTYSFDYWGQGTMVTVSS
VL: NFMLTQPHSVSESPGKTVTISCERSSGDIGDSYVSWYQQRPGSPPTNVIYADDQRPSGVPDRFSGSIDSSSNSASLTISGLKTEDEADYFCQSYDINIDIVFGGGTKLTVL
Consider B5, for which the “hPDGF-BB IC50 (nM)” value in test [3] is above 5 nM.

B6: hBDI-9E8.6 (antibody, V domains shown)
VH: EVTLRESGPALVKPTQTLTLTCTFSGFSLSTYGMGVGWIRQPPGKGLEWLANIWWDDDKYYNPSLKNRLTISKDTSKNQAVLTITNMDPVDTATYYCARIESIGTTYSFDYWGQGTMVTVSS
VL: NFMLTQPHSVSESPGKTVTISCERSSGDIGDSYVSWYQQRPGSPPTNVIYADDQRPSGVPDRFSGSIDSSSNSASLTISGLKTEDEADYFCQSYDINIDIVFGGGTKLTVL
As for B6, the “hPDGF-BB IC50 (nM)” value in test [3] was above 5 nM.

B7: hBDI-9E8.5 (antibody, V domains shown)
VH: EVTLRESGPALVKPTQTLTLTCTFSGFSLSTYGMGVGWIRQPPGKGLEWLANIWWDDDKYYNPSLKNRLTISKDTSKNQAVLTITNMDPVDTATYYCARIESIGTTYSFDYWGQGTMVTVSS
VL: NFMLTQPHSVSESPGKTVTISCERSSGDIGDSYVSWYQQRPGSSPTTVIYADDQRPSGVPDRFSGSIDSSSNSASLTISGLKTEDEADYYCQSYDINIDIVFGGGTKLTVL
Take B7: the “hPDGF-BB IC50 (nM)” value in test [3] was above 5 nM.

B8: 3E2.1_GS_4G8.5 (bispecific antibody, human IgG1, kappa, L234A L235A)
heavy: EVQLVQSGAEVKKPGSSVKVSCKASGYTFTESYMYWVKQAPGQGLELIGRIDPEDGSTDYVEKFKNKATLTADKSTSTAYMELSSLRSEDTAVYFCARFGARSYFYPMDAWGQGTTVTVSSGGGGSGGGGSEIQLVQSGSELKKPGASVKVSCKASGYTFTNYGMYWVRQAPGQGLEYMGWINTETGKPTYADDFKGRFVFSLDTSVSTAYLQISSLKAEDTAVYFCARTNYYYRSYIFYFDYWGQGTMVTVSSASTKGPSVFPLAPSSKSTSGGTAALGCLVKDYFPEPVTVSWNSGALTSGVHTFPAVLQSSGLYSLSSVVTVPSSSLGTQTYICNVNHKPSNTKVDKKVEPKSCDKTHTCPPCPAPEAAGGPSVFLFPPKPKDTLMISRTPEVTCVVVDVSHEDPEVKFNWYVDGVEVHNAKTKPREEQYNSTYRVVSVLTVLHQDWLNGKEYKCKVSNKALPAPIEKTISKAKGQPREPQVYTLPPSREEMTKNQVSLTCLVKGFYPSDIAVEWESNGQPENNYKTTPPVLDSDGSFFLYSKLTVDKSRWQQGNVFSCSVMHEALHNAYTQKSLSLSPGK
light: ETVLTQSPATLSLSPGERATLSCRASESVSTLMHWYQQKPGQQPRLLIYGASNLESGVPARFSGSGSGTDFTLTISSLEPEDFAVYFCQQSWNDPWTFGGGTKVEIKGGSGGGGSGGATQLTQSPSLSASVGDRVTITCRASESVSTHMHWYQQKPGKQPKLLIYGASNLESGVPSRFSGSGSGTDFTLTISSLQPEDFATYFCQQSWNDPFTFGQGTKLEIKRTVAAPSVFIFPPSDEQLKSGTASVVCLLNNFYPREAKVQWKVDNALQSGNSQESVTEQDSKDSTYSLSSTLTLSKADYEKHKVYACEVTHQGLSSPVTKSFNRGEC
Take B8: the “Potency IC50 (nM) HMVEC-d hVEGF165” value in test [1] was determined as 0.743 nM. For the same molecule, the “Potency IC50 (nM) NIH-3T3 hPDGF-BB” value in test [2] came to 0.38 nM.
